Target: the molecule itself
Assay: SEC-MALS; 100 μl sample (individual proteins or mixture, up to 500 μM) on Superdex 200 Increase 10/300 GL in TBS

B1: liprin-α2_CC2 (residues 259–542) (domain or fragment, human, UniProt O75334 259-542, looked up)
chain: GSIDSTDETSQIVELQELLEKQNYEMAQMKERLAALSSRVGEVEQEAETARKDLIKTEEMNTKYQRDIREAMAQKEDMEERITTLEKRYLSAQRESTSIHDMNDKLENELANKEAILRQMEEKNRQLQERLELAEQKLQQTMRKAETLPEVEAELAQRIAALTKAEERHGNIEERMRHLEGQLEEKNQELQRARQREKMNEEHNKRLSDTVDRLLTESNERLQLHLKERMAALEEKNVLIQESETFRKNLEESLHDKERLAEEIEKLRSELDQLKMRTGSLIEP
notes: liprin-α2, human, GenBank AF034799.1, CC2 region, residues 259–542; Dimeric by SEC-MALS at 500 μM; source: E. coli BL21(DE3), purified (Ni-NTA, SEC)
stoichiometry N: 2

From paper PMC12151379, “The liprin-α/RIM complex regulates the dynamic assembly of presynaptic active zones via liquid–liquid phase separation” (PLOS Biology, 2025)
